Reference: article PMC4701444 (PLoS ONE, 2016)
Bridge positions count the residues as written; N and C are the ends. Ends that are not written are not given here. * marks the point of attachment. 5FAM = O=C1OC2(c3ccc(O)cc3Oc3cc(O)ccc32)c2ccc(C(=O)*)cc21

B1: PfAMA1 (DI-DII of Plasmodium falciparum Apical Membrane Antigen 1, 3D7, residues 104-438) (domain or fragment)
chain: NYMGNPWTEYMAKYDIEEVHGSGIRVDLGEDAEVAGTQYRLPSGKCPVFGKGIIIENSNTTFLTPVATGNQYLKDGGFAFPPTEPLMSPMTLDEMRHFYKDNKYVKNLDELTLCSRHAGNMIPDNDKNSNYKYPAVYDDKDKKCHILYIAAQENNGPRYCNKDESKRNSMFCFRPAKDISFQNYTYLSKNVVDNWEKVCPRKNLQNAKFGLWVDGNCEDIPHVNEFPAIDLFECNKLVFELSASDQPKQYEQHLTDYEKIKEGFKNKNASMIKSAFLPTGAFKADRYKSHGKGYNWGNYNTETQKCEIFNVKPTCLINNSSYIATTALSHPIEVE
notes: codon-optimized synthetic gene; also called native PfAMA1; PfAMA1 DI-DII construct
B2: F*PfRON2sp1 (39 aa) [2021-2059], fluorescein-labeled PfRON2sp1 peptide (peptide)
peptide: 5FAM-DITQQAKDIGAGPVASCFTTRMSPPQQICLNSVVNTALS
modifications: disulfide 17-29
notes: Rhoptry Neck Protein 2 (RON2) of Plasmodium falciparum, residues 2021-2059; also called labeled peptide; labeled probe; source: synthetic peptide, bought: Kinexus (purity ≥ 95%)

Key:
[1] = target: T1, PfAMA1 (Plasmodium falciparum, UniProt Q7KQK5); experiment: Isothermal Titration Calorimetry, PfAMA1; format: binding; conditions: ITC, 25°C; which AMA1 construct not stated
T1 construct: (residues 104–438); hexa-histidine (cleaved yes); made in house; host or cells: insect cells (modified pAcGP67B vector)
T1 sequence (Q7KQK5 104-438): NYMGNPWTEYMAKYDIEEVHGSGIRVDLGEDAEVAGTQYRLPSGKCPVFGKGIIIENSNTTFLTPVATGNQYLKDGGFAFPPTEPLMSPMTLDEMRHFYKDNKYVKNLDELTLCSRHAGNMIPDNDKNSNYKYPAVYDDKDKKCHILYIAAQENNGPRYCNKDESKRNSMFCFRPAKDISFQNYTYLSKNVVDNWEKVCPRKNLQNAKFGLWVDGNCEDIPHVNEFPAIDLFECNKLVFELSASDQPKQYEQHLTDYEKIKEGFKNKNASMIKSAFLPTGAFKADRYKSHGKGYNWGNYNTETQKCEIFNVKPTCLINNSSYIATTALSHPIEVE
Experimental: (§1) Purified PfAMA1, ΔDII-PfAMA1, and PfRON2D3-TRX were dialyzed against ITC buffer (20 mM Hepes pH 7.5, 150 mM NaCl) at 4°C. All ITC experiments were carried out at 25°C on a MicroCal iTC200 instrument. The sample cell contained PfAMA1 or ΔDII-PfAMA1 (10 μM), and PfRON2D3-TRX (110 μM) was added in 17 injections of 2.2 μL each. […] Data were processed using Origin software (MicroCal) and the dissociation constants (Kd) were determined using a one binding site model.

[2] = target: ΔDII-PfAMA1; experiment: Isothermal Titration Calorimetry, ΔDII-PfAMA1; format: binding, Plasmodium falciparum; conditions: 25°C; ΔDII-PfAMA1 10 μM, PfRON2D3-TRX 110 μM; 20 mM Hepes pH 7.5, 150 mM NaCl; average of two experiments with standard deviation; read-out: ITC Kd
Experimental: as §1

[3] = target: PfAMA1; conditions: Room temp; ref [23]; read-out: SPR Kd; cited from earlier work
Text: Table 2 Comparison of equilibrium dissociation constants (Kd) of complexes. | column: SPRKd (nM) / Room temp

[4] = target: B2; experiment: fluorescence polarisation; anisotropy kinetics at 25°C; association: 10 nM labeled probe with 50, 100, 200 nM protein; dissociation: 10 nM preformed complex challenged with 2500 or 5000 nM unlabeled PfRON2sp1; global fit to a one-intermediate model; PBS pH 7.4, at least 0.1% BSA; conditions: both partners purified
[5] = target: B2; experiment: fluorescence polarisation; anisotropy kinetics at 20°C; association: 10 nM labeled probe with 50, 100, 200 nM protein; dissociation: 10 nM preformed complex challenged with 2500 or 5000 nM unlabeled PfRON2sp1; global fit to a one-intermediate model; PBS pH 7.4, at least 0.1% BSA; conditions: both partners purified
[6] = target: B2; experiment: fluorescence polarisation; anisotropy kinetics at 25°C; association: 10 nM labeled probe with 50, 100, 200 nM protein; dissociation: 10 nM preformed complex challenged with 2500 or 5000 nM unlabeled PfRON2sp1; global fit to a one-intermediate model; PBS pH 7.4, at least 0.1% BSA; conditions: both partners purified
[7] = target: B2; experiment: fluorescence polarisation; anisotropy kinetics at 30°C; association: 10 nM labeled probe with 50, 100, 200 nM protein; dissociation: 10 nM preformed complex challenged with 2500 or 5000 nM unlabeled PfRON2sp1; global fit to a one-intermediate model; PBS pH 7.4, at least 0.1% BSA; conditions: both partners purified
[8] = target: B2; experiment: fluorescence polarisation; anisotropy kinetics at 25°C; association: 10 nM labeled probe with 50, 100, 200 nM protein; dissociation: 10 nM preformed complex challenged with 2500 or 5000 nM unlabeled PfRON2sp1; global fit to a one-intermediate model; PBS pH 7.4, at least 0.1% BSA; conditions: both partners purified
[9] = target: B1; experiment: fluorescence polarisation; anisotropy titration at 20°C; 10 nM F*PfRON2sp1 titrated with protein (0 to 10 μM); PBS pH 7.4, at least 0.1% BSA; conditions: both partners purified
[10] = target: B1; experiment: fluorescence polarisation; anisotropy titration at 25°C; 10 nM F*PfRON2sp1 titrated with protein (0 to 10 μM); PBS pH 7.4, at least 0.1% BSA; conditions: both partners purified
[11] = target: B1; experiment: fluorescence polarisation; anisotropy titration at 30°C; 10 nM F*PfRON2sp1 titrated with protein (0 to 10 μM); PBS pH 7.4, at least 0.1% BSA; conditions: both partners purified
[12] = target: B1; experiment: fluorescence polarisation; anisotropy kinetics at 20°C; association: 10 nM labeled probe with 50, 100, 200 nM protein; dissociation: 10 nM preformed complex challenged with 2500 or 5000 nM unlabeled PfRON2sp1; global fit to a one-intermediate model; PBS pH 7.4, at least 0.1% BSA; conditions: both partners purified
[13] = target: B1; experiment: fluorescence polarisation; anisotropy kinetics at 25°C; association: 10 nM labeled probe with 50, 100, 200 nM protein; dissociation: 10 nM preformed complex challenged with 2500 or 5000 nM unlabeled PfRON2sp1; global fit to a one-intermediate model; PBS pH 7.4, at least 0.1% BSA; conditions: both partners purified
[14] = target: B1; experiment: fluorescence polarisation; anisotropy kinetics at 30°C; association: 10 nM labeled probe with 50, 100, 200 nM protein; dissociation: 10 nM preformed complex challenged with 2500 or 5000 nM unlabeled PfRON2sp1; global fit to a one-intermediate model; PBS pH 7.4, at least 0.1% BSA; conditions: both partners purified
[15] = target: B1; experiment: ITC; 25°C, MicroCal iTC200; cell: PfAMA1 or ΔDII-PfAMA1 (10 μM); syringe: PfRON2D3-TRX (110 μM), 17 injections of 2.2 μL; 20 mM Hepes pH 7.5, 150 mM NaCl; one binding site model; conditions: both partners purified
[16] = target: B1; experiment: as above; conditions: both partners purified; remark: listed apart in the source

Molecule: TRX: thioredoxin, injected as a negative control in ITC
- binding of TRX negative control [1]: no detectable binding

Molecule: PfRON2D3: thioredoxin fusion of PfRON2D3 (Asp2021 to Ser2059) produced in E. coli BL21 cells
- Kd [2]: 92.6 ± 6.4 nM
- Kd [3]: 20.3 ± 6.3 nM

Molecule: B1
- dH of step 1 (formation of the intermediate) [4]: -0.67 kcal/mol
- complex half-life (calculated from the one-intermediate model) [5]: 28.8 min
- complex half-life (experimental) [5]: 27.3 min
- complex half-life (calculated from the one-intermediate model) [6]: 16 min
- complex half-life (experimental) [6]: 15 min
- complex half-life (calculated from the one-intermediate model) [7]: 9.07 min
- complex half-life (experimental) [7]: 9.23 min
- dH (overall, summation of the transition states from the kinetic fit) [8]: -11.6 kcal/mol

Molecule: B2
- Kd [9]: 31 ± 2 nM
- Kd [10]: 43 ± 3 nM
- Kd [11]: 61 ± 5 nM
- Kd [12]: 32.3 ± 8 nM
- Kd [13]: 38.2 ± 10 nM
- Kd [14]: 43.8 ± 11 nM

B3: PfRON2D3-TRX (thioredoxin fusion of PfRON2D3, amino acids Asp2021 to Ser2059) (domain or fragment)
chain: DITQQAKDIGAGPVASCFTTRMSPPQQICLNSVVNTALS
notes: Modified pET32a vector with N-terminal hexahistidine and thioredoxin tags and a thrombin cleavage site; the fusion was used uncleaved in ITC; also called TRX-fused peptide; not shown: thioredoxin (TRX), N-terminal, kept
- Kd [15]: 42.9 nM
- dH [16]: -12.1 ± 0.1 kcal/mol
